Measurements published in publication PMC8092461 (Nature, 2020).

B1: C104 IgG (antibody, V domains shown)
VH: QVQLQQWGAGLLKPSETLSLSCAVYGGSLSGYYWSWIRQPPGKGLEWIGEINHFGSTGYNPSLKSRVTISVDTSKSQFSVKLSSVTAADTAVYYCARKPLLYSNLSPGAFDIWGQGTMVTVSS
VL: EIVLTQSPGTVSLSPGERATLSCWASQSVSASYLAWYQQKPGQAPRLLIYGASSRATGIPDRFSGSGSGTDFTLTISRLEPEDFAVYYCQQYGTTPRTFGGGTKVEIK
B2: C105 IgG (antibody, V domains shown)
VH: QVQLVESGGGLIQPGGSLRLSCAASGFTVSSNYMSWVRQAPGKGLEWVSVIYSGGSTYYADSVKGRFTISRDNSKNTLYLQMNSLRAEDTAVYYCARGEGWELPYDYWGQGTLVTVSS
VL: QSALTQPPSASGSPGQSVTISCTGTSSDVGGYKYVSWYQQHPGKAPKLMIYEVSKRPSGVPDRFSGSKSGNTASLTVSGLQAEDEADYYCSSYEGSNNFVVFGGGTKLTVL
B3: C002 IgG (antibody, V domains shown)
VH: EVQLVESGGGVVQPGRSLRLSCAASGFTFSIYGMHWVRQAPGKGLEWVAVISYDGSNKYYADSVKGRFTISRDNSKNTLYLQMNSLRAEDTAVYYCAKEGRPSDIVVVVAFDYWGQGTLVTVSS
VL: not shown
B4: C110 IgG (antibody, V domains shown)
VH: QVQLQQSGAEVKKPGESLKISCKGSGYSFTSYWIGWVRQMPGKGLEWMGIIYPGDSDTRYSPSFQGQVTISADKSISTAYMQWSSLKASDTAMYYCARSFRDDPRIAVAGPADAFDIWGQGTMVTVSS
VL: DIQMTQSPSTLSASVGDRVTITCRASQSISYWLAWYQQKPGKAPKLLIYQASSLESGVPSRFSGSESGTEFTLTISSLQPDDFATYYCQQYNSYPYTFGQGTKLEIK
B5: C119 IgG (antibody, V domains shown)
VH: QVQLVQSGAEVKKPGASVKVSCKASGYTFTSYYMHWVRQAPGQGLEWMGIINPSGGSTSYAQKLQGRVTMTRDTSTSTVYMELSSLRSEDTAVYYCARANHETTMDTYYYYYYMDVWGKGTTVTVSS
VL: QSALTQPASVSGSPGQSITISCTGTSSDVGGYKYVSWYQRHPGKAPKLMIYDVSNRPSGVSNRFSGSKSGNTASLTISGLQAEDEADYYCSSYTSSSTSVVFGGGTQLTVL
B6: C121 IgG (antibody, V domains shown)
VH: not shown
VL: QSALTQPASVSGSPGQSITISCTGTSSDVGSYNLVSWYQQHPGKAPKLMIYEGSKRPSGVSNRFSGSKSGNTASLTISGLQAEDEADYYCCSYAGSSTLVFGGGTKLTVL

Target: SARS-CoV-2 RBD (receptor-binding domain of S, residues 331-524) (SARS-CoV-2, UniProt P0DTC2)
Test: SPR

Row | Binder | binding result
1 | B1 | binds
2 | B2 | binds
3 | B3 | binds
4 | B4 | binds
5 | B5 | binds
6 | B6 | binds
